Source: the DeepSol protein solubility set

assay: soluble on expression in E. coli; label from the status in PepcDB or PDB records

Sequence | soluble on expression in E. coli
MAHHHHHHSLTTSHILGFPRVGAKRELKFAQERYWRKELAEQDLLDLAKALREKNWKHQAAANADFVAVGDFTFYDHILDLQVATGAIPARFGFDSQNLTLDQYFQLARGNKDQFAIEMTKWFDTNYHYLVPEFQKSTAFKANPAHYVNQIREAKALGLNFKPVIVGPLTFLWLGKEKGEAFNRFDLLNQLVPVYVEILNALVAEGAEWIQIDEPALALDLPAEWVEAYKSVYTELSKVNAKLLLATYFGSVAEHAELLKALPVAGLHLDLVRAPEQLAAFEDYSKVLSAGVIEGRNIWRANLNKVLDVLEPLKAKLGERLWIAPSCSLLHTPFDLEVEVQLKEKNTALYSWLSFTLQKVEELNVLKQALNNGRASVQAALDASQVAADARATSKEIHRPEVAERLANLPKGADQRKSPFAERIVKQNAWLNLPLLPTTNIGSFPQTTEIRHARASFKKGELSLADYEAAMKKEIEYVVRRQEELDLDVLVHGEAERNDMVEYFGELLDGFAFTKFGWVQSYGSRCVKPPVIYGDVTRPEPMTVRWSQYAQSLTNRVMKGMLTGPVTILQWSFVRNDIPRSTVCKQIGVALSDEVLDLEAAGIKVIQIDEPAIREGLPLKRADWDAYLQWAGEAFRLSSMGVQDDTQIHTHMCYSEFNDILPAIAALDADVITIETSRSDMELLTAFADFKYPNDIGPGVYDIHSPRVPTATEVEHLLRKALNVIPKERLWVNPDCGLKTRGWTETIDQLKVMVDVTKKLRAELAEG | soluble
MSLQIKFWPQDLKLAHTWTIASSVTSGSDVTSVGIVQLTDRDGTVGLGEAAPARRYNESTPGSLDFIAKVDATKLSFDNIEASMKYVESLASGQFAAKSAINVALLDGAARKAGKPIYDLLGLGFRNNHHVTSFSIGIDKADVIRKKVLAAEQYPVLKLKVGAADDKANLAALREAAPQKWVRVDANEGWKTKEHALEMIEWLAQDKFIQYIEQPMPADSNPKDIAWLKARSPLPLFGDESYHTAKDVDHCAECYHGVNVKLCKTGGISNAYEALQVARKAGLKTMIGCMIETSILISAAAHLAELCDYLDIDGNLLTTNDPYLGVTAEKGLLSFASAPEKLGLRVRAKEGHHHHHH | soluble
MSLTADPPACTVPAAGGASTHKLVNAGAEKMIFKIKSSNNNEYRITPVFGFVDPSGSKDITITRTAGAPKEDKLVVHFAAAPADATDAQAAFAAITPAGTITIPMSATA | soluble
MTIEDLQAFMKREFPQLGEAFEIVTVDEGSATMRLHADAQHLRPGGTVSGPSLFALADVAAYAAILAHIGPVALAVTTNLNINFLRKPSPGTVEAVAHLLKLGKRLAVLDISLTDGANGELVAHATATYSIPPRLEHHHHHH | soluble
SATSKLQALWNHPAGPKTIHFWAPTFKWGISIANIADFQKPPENISYLQQIAVTCTGMIWCRCSTIITPKNWNLFSVNVAMAATGIYQLTRKIKYDYVSEAEAAVEIEG | soluble
MSLSKPLKAIIIGAGISGMVASVRLREMGIEHTIFEKNNEFGGTWWENRYPGCGVDTPNLTYTFSFRPNDWSAFFPLRDEIENYLLETARESGLYDRVRFGTKVERAEWLADRNQWQVTVRAEDGSEEVHHADIVMSAVGILNMPVVPDIKGLSGFAGRVVHTSDWPQDIDLKGKRVAVVGNGASAMQVVPAIADQVAELTIFARSKQWAAPFPQFRKPVPNGVRYLMQVVPLYRAWVEQRLSWTFNDRVHGTLFRDPDWKEPARAVNAINDGHREFFTRYVREELGERQDLLPLVLPDYPPFAKRMLLDNGWYRTLRKPHVKLVPQRLAEVRGHTLVAQDGQEIEADVLILATGFQAANVLGSYDVIGRDGRDLHEFWEGDNAAAYLGTLVPGFPNFFILLGPNVGSGHGGSMIRNIENQAHYATRVIEALVKSGADAVEVREDVYGDYKARIDAAHEKLVWTHPGATNWYRNSRGRVVAITPWRNDAFWRMTREARPEDLSFSGAEGHHHHHH | soluble
MSLAKPKVIVPMVTPLRGGSVDKNAASWLASRLSESGVDGVFVPGTTGEWYLLDPHERAEAFFAVASSAIAGLRLVAGVSGYRPEESYRLAEEAAGHGAHAVMAVPPIYFRPSTDFLREFYGEIKRRAGGLPTYIYIFPERMGYTLAVEQVESLVEAGVVDGIKATVTDAAYIAGLAAVKERNPEFEVLAGGLEMLVHTSLSGGDGVVDAYSNVAPKLAVELAESLEKGSVERVAGLQGRVLKLSRILGKRSLPAVLKAVLHVLGAPITGEVRKPLKPLTQPEANATANALCTSYRDYLLPGEGHHHHHH | soluble
MANSETSLQARLWKTLSQSPDVRLWRNNVGTCKAADGRFVRFGLCPGSSDLIGLTRVTITPDMVGQTIALFTAIEVKTPTGRVTPEQQSFIDFVQRSGGRAGVARSMQDANKIISGEGHVLEHHHHHH | not soluble
GTKMEPMEYLVVDVPSEFQGAIIEKMGPRKGEMTSLQPMGETVRLEFVVPARGLIGLRGELLTETRGTAVMTHTFHDYAPYKGDIPGRKNGVLIAMELGETTAYALDALQPRGILFIGPGVEVYGGMI | not soluble
MTSDGMDEWPTGRLLSTAARLVEHSWEDILRSQNMTHAGLICLHTIADRPASQRDIAKVSRVTDQTISRTIDRLERAGYVTRETDPLDERRKRVAITESGRAIYRRLLALEKEDAALTAAVGDVGPLREQLLLLVRSLGLPTRD | not soluble
MNVVRYTPWPGQAALQNEIKQVFDRFFEHNGDTDESAVVTAQWVPRVDIKEEPNQFVLYADLPGIDPADIEVQMDKGILSIKGERKTESSSQTEHFSRIERRYGSFHRRFALPDSADADGITASGSHGVLRILIPKQAATTPRRIQVGNAVSSDVALQSMLEHHHHHH | soluble
MGSDKIHHHHHHMKIDMRNISKSFGTNKVLEKIDLELQSGQIHALMGENGAGKSTLMNILTGLFPASTGTIYIDGEERTFSNPQEAEEFGISFIHQEMNTWPEMTVLENLFLGREIKTTFGLLNQKLMRQKALETFKRLGVTIPLDIPIGNLSVGQQQMIEIAKSLLNQLSILVMDEPTAALTDRETENLFRVIRGLKQEGVGVVYISHRMEEIFKITDFVTVMRDGVIVDTKETSLTNSDELVKKMVGRKLEDYYPEKHSEIGPVAFEVSNLCGDNFEDVSFYVRKGEILGFSGLMGAGRTEVMRTIFGIDKKKSGKVKIDDQEITITTPSQAIKQGIGFLTENRKDEGLILDFNIKDNMTLPSTKDFSKHGFFDEKTSTTFVQQLINRLYIKSGRPDLEVGNLSGGNQQKVVLAKWIGIAPKVLILDEPTRGVDVGAKREIYQLMNELADRGVPIVMVSSDLPEILGVSDRIMVMHEGRISGELSRKEADQEKVMQLATGGK | not soluble
MTQVRETVSFKAGDVILYPGVPGPRDRAYRVLEGLVRLEAVDEEGNALTLRLVRPGGFFGEEALFGQERIYFAEAATDVRLEPLPENPDPELLKDLAQHLSQGLAEAYRRIERLATQRLKNRMAAALLELSETPLAHEEEGKVVLKATHDELAAAVGSVRETVTKVIGELAREGYIRSGYGKIQLLDLKGLKELAESRGQGR | soluble
MKDYIRSVLDVVAESPFVPLETHARKGVLAVEKLSEAMEAYCTGNQALLDERTEEIDVLEHEADKIKQKIRASIPSSVRLPVNKKDLLSFLKQQDSIADFAQASAYWMTLRPCKDLPDEIKEGFLELMATSLKTARMYDRLVGELYKLLATSFSKEEIKETLQLVPEVEKLEHDVDVLETALLKKIFEHESAIGGAGVCHLMGLVERIGGIADKSASAADRLRSMILRRLEHHHHHH | soluble
MLITKNQAEKWFDNSLGKQFNPDLFYGFQCYDYANMFFMIATGERLQGLYAYNIPFDNKARIEKYGQIIKNYDSFLPQKLDIVVFPSKYGGGAGHVEIVESANLNTFTSFGQNWNGKGWTNGVAQPGWGPETVTRHVHYYDDPMYFIRLNFPDKVSVGDKAKSVIKQATAKKQAVIKPKKIMLVAGHGYNDPGAVGNGTNERDFIRKYITPNIAKYLRHAGHEVALYGGSSQSQDMYQDTAYGVNVGNNKDYGLYWVKSQGYDIVLEIHLDAAGESASGGHVIISSQFNADTIDKSIQDVIKNNLGQIRGVTPRNDLLNVNVSAEININYRLSELGFITNKKDMDWIKKNYDLYSKLIAGAIHGKPIGGLVAGNVKTSAKNQKNPPVPAGYTPDKNNVPYKKETGYYTVANVKGNNVRDGYSTNSRITGVLPNNATIKYDGAYCINGYRWITYIANSGQRRYIATGEVDKAGNRISSFGKFSAVLEHHHHHH | not soluble
MPKPYIAINMADLKNEPKTFEMFSAVGPKVCMVTARHPGFVGFQNHVQIGVLPFGERFGGAKMDMTKESSTVRVLQYTMWKDWKDHEEMHRQNWSYLFRLCYSCASQMVWGPWEPIYEIKYADMPINTEMTDFTAVVGKKFAEGKPLEIPVISQPYGKRVVAFGEHTVIPGKEEQFEDAIIKTLEMFKRAPGFLGAMLLKEIGVSGIGSFQFGSKGFHQLLESPGSLEPDPNNVMYQAPEAKPTPPQYIVHVEWANLDALQFGMGRVLLSPEYREVHDEALDTLIYGPYIRIINPVMEGTFWREYLNE | soluble
GSHMRIPATIKKKMALPPATPVFTGEKKVEETKITAAIYDEKSVEFKELEVGELESVVRSALALNKKLWIDVVGVHDESLIAKICEFLGIHPLAAEDILNTAQRVKIEDYDDHLFLVLKILLYNETLEIDQLSLVLKKNLVATFEEREYWILDSIRSRLKSGGRMRKLAGDYLAYTILDAVVDSYFEALLKISDEIEVLEDEVVSGDSTLIGKIHSLKREILAFRNAVWPLRDVLSFFTRVEHELIGEEVKVYYRDVYDHAVRLME | soluble
DEFQWKGLPVVKSGLDVGGMPTGTRYHRSPAWPEEQPGETHAPAPFGSGDKRYTFSQTEMLVNGLKPYTEPTAGVPPQLLSRAVTHVRSYIETIIGTHRSPVLTYHQACELLERTTSCGPFVQGLKGDYWDEEQQQYTGVLANHLEQAWDKANKGIAPRNAYKLALKDELRPIEKNKAGKRRLLWGCDAATTLIATAAFKAVATRLQVVTPMTPVAVGINMDSVQMQVMNDSLKGGVLYCLDYSKWDSTQNPAVTAASLAILERFAEPHPIVSCAIEALSSPAEGYVNDIKFVTRGGLPSGMPFTSVVNSINHMIYVAAAILQAYESHNVPYTGNVFQVETIHTYGDDCMYSVCPATASIFHTVLANLTSYGLKPTAADKSDAIKPTNTPVFLKRTFTQTPHGIRALLDITSITRQFYWLKANRTSDPSSPPAFDRQARSAQLENALAYASQHGPVMFDTVRQIAIKTAQGEGLVLVNTNYDQALATYNAWFIGGTVPDPVGHTEGTHKIVFEME | soluble
MTFNQEQDYWAGYKANERALIIQTWSGFGRYAPDHLYPPHILPLDTDNETLGTTVLQALANSRTFVYDSPEDQDFFDTEKIRQRYEDWVAKLCGNLGYKTRRALFKNMMSVDIWLHNGCLKISPSRHVKLEAWDAIDADDVILSLDNSPEEIGAGLKLALSRCR | soluble
MVKQLKFSEDARQAMLRGVDQLANAVKVTIGPKGRNVVLDKEFTAPLITNDGVTIAKEIELEDPYENMGAKLVQEVANKTNEIAGDGTTTATVLAQAMIQEGLKNVTSGANPVGLRQGIDKAVKVAVEALHENSQKVENKNEIAQVGAISAADEEIGRYISEAMEKVGNDGVITIEESNGLNTELEVVEGMQFDRGYQSPYMVTDSDKMVAELERPYILVTDKKISSFQDILPLLEQVVQSNRPILIVADEVEGDALTNIVLNRMRGTFTAVAVKAPGFGDRRKAMLEDLAILTGAQVITDDLGLDLKDASIDMLGTASKVEVTKDNTTVVDGDGDENSIDARVSQLKSQIEETESDFDREKLQERLAKLAGGVAVIKVGAASETELKERKLRIEDALNSTRAAVEEGIVAGGGTALVNVYQKVSEIEAEGDIETGVNIVLKALTAPVRQIAENAGLEGSVIVERLKNAEPGVGFNAATNEWVNMLEEGIVDPTKVTRSALQHAASVAAMFLTTEAVVASIPEKNNDQPNMGGMPGMM | not soluble
